Common to all, as to assay: filter binding
The target in one series is T1, Cdc6-2 FL (Methanothermobacter thermautotrophicus, UniProt O27636 1-379).
T1 sequence: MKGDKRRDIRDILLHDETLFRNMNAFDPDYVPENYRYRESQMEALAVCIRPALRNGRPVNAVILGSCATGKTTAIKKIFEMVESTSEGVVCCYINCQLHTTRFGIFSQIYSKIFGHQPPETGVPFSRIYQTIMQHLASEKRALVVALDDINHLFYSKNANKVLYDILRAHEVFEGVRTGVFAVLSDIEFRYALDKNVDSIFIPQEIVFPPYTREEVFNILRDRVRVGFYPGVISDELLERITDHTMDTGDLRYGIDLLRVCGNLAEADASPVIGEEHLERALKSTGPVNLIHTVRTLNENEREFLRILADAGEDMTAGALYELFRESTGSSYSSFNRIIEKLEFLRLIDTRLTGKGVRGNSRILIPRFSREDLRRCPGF

A further series deals with T2, Cdc6-1 FL (Methanothermobacter thermautotrophicus, UniProt O27463 1-382).
T2 sequence: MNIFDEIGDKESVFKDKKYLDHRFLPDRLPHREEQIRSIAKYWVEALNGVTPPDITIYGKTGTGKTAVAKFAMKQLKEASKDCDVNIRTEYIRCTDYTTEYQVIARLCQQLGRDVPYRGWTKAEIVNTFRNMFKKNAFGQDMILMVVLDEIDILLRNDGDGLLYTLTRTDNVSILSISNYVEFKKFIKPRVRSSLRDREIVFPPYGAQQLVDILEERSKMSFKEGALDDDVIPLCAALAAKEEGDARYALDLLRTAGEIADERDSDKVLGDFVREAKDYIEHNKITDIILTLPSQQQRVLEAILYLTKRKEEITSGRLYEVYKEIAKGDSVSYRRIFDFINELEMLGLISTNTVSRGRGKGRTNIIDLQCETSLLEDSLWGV

In another series the target is T3, Cdc6-1 WH (Methanothermobacter thermautotrophicus, UniProt O27463 287-382).
T3 sequence: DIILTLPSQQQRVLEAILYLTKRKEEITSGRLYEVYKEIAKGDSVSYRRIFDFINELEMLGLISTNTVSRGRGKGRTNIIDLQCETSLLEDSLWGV

The target of a further series is T4, Cdc6-2 WH (Methanothermobacter thermautotrophicus, UniProt O27636 292-379).
T4 sequence: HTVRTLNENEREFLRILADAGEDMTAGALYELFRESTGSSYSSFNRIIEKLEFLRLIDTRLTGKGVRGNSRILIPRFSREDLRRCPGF

The results in this text go back to publication PMC1201339.

Consider TACATATGTACATGGGTACATATGTACATGGGTACATATGTACAT (ssDNA) [MR163 45mer ssDNA], for which the values for the binding result in the series with Cdc6-2 FL and with Cdc6-1 FL were “binds” and “no binding”, respectively.

B1: MR163/MR164 45 bp dsDNA (dsDNA)
DNA 1: TACATATGTACATGGGTACATATGTACATGGGTACATATGTACAT
DNA 2: ATGTACATATGTACCCATGTACATATGTACCCATGTACATATGTA
In the case of B1, the binding result is recorded as “binds” with Cdc6-2 FL, “no binding” in the series with Cdc6-1 WH and “no binding” in the series with Cdc6-2 WH.
